Laboratory results: paper PMC10343505 (Molecules, 2023)
Where a SMILES comes first, the peptide text is derived from it. The star is where a group is joined. Galloyl = O=C(c1cc(O)c(O)c(O)c1)*

Tests used:
[1] = Water solubility of synthesized compounds; format: physicochemical; details: concentration of 1 mg/mL in pure water
Procedure: The Hecate N-terminal fragments found in the serum stability experiment were selected to conjugate with gallic acid, like that in the GA-Hecate structure, where GA is coupled at the N-terminal region. Bioconjugates were synthesized using solid-phase methods and, after purification, their purity and identities were determined by high-performance liquid chromatography and mass spectrometry, respectively (see Supplementary Information). GA-metabolite 6 was not water-soluble and therefore was not considered for further biological evaluation.

Vero cells [2] = assay: Cytotoxicity profile, WST-1 viability assay; format: cell-based, African green monkey; details: 72 h; for CC50 (50% cytotoxic concentration in VERO cells): WST-1, non-linear regression of dose-response curve; for maximum non-toxic concentration: arbitrary threshold of 80% cell viability, range 80-0.62 µM
Procedure: To understand the effect of GA-Hecate and N-terminal-GA-metabolites on host cells, we tested them at a range of concentrations (80–0.62 µM) on Vero cells. Considering the arbitrary threshold of 80% cell viability, GA-Hecate, and GA-metabolite 5 reached their maximum non-toxic concentration at 40 µM (Figure 2).
Figure 2 Compound effects on Vero cells. Vero cells were incubated with different concentrations of GA-peptides. At 72 h post treatment, cell viability was determined by WST viability assay and the values are plotted as those relative to the control. Bars represent triplicate samples of three independent assays. *** p < 0.001. Comparison control vs. concentration. Water, the GA-peptide vehicle, was used as a negative control. Red dotted lines represent the arbitrary threshold of 80% cell viability.
The cytotoxicity profile of GA-Hecate and GA-metabolites. Peptide cytotoxicity profiles were measured using the WST-1 (4-[3-(4-iodophenyl)-2-(4-nitrophenyl)-2H-5-tetrazolio]-3-benzene disulfonate) cell proliferation reagent. A total of 24 h before treatment, 7 × 10^3 Vero cells/well were cultured with supplemented DMEM in a 96-multi-well plate and incubated at 37 °C in a humidified 5% CO2 incubator. The next day, the peptide-containing medium was added at the following final concentrations: 80; 40; 20; 10; 5; 2.5; 1.25, and 0.625 µM. After 72 h of incubation, peptide medium was removed, and WST-1 at a dilution of 1:10 was added to the wells and incubated for 30 min. Absorbance was measured at 450 nm, using a plate reader spectrophotometer.

[3] = Serum stability, mass spectrometry; format: in vitro ADME; details: 100 µL of 1 mg/mL peptide + 100 µL fresh human serum, 37 °C, 20 min, ethanol precipitation, ESI mass spectrometry
Procedure: The GA-Hecate peptide has shown promising efficacy in antiviral assays, but its stability and target selectivity are yet to be determined. An understanding of these properties is crucial for the future progression of the peptide for therapeutic end use. To evaluate its stability, the Hecate peptide was incubated in freshly prepared human blood serum at 37 °C for 20 min. Mass spectrometry was then employed to identify breakdown products (metabolites) (Supplementary Figure S1).
Serum stability. A total of 100 µL of a solution containing 1 mg/mL of Hecate peptide was incubated at 37 °C with 100 µL of fresh human serum for 20 min. Then, 200 µL of 96% ethanol solution in water was added to the mixture, which was centrifuged, and the supernatant was analysed by mass spectrometry as described below. Water was used as a negative control for samples without serum (Supplementary Figure S1).
Mass spectrometry. Compound solutions were analysed by mass spectrometry using a Bruker spectrometer in electrospray positive mode with direct injection. Spectra were analysed with the help of Spectra Analysis Software using the relationship between molecular weight (m) and charge (z) (m/z). Fragments of Hecate were identified, and the amino acid sequence was determined by m/z comparison.

Vero cells [4] = assay: Cell toxicity during constant treatment (cell count, WST-1); format: cell-based, African green monkey; details: 20 µM for 3 and 7 days
Procedure: We next assessed the effect, if any, of our peptides on cell growth, which in turn could affect virus replication. Vero cells in culture flasks were propagated in the presence or absence of 20 µM each of GA-peptides for 3 and 7 days. At this time point, viable cells were counted following incubation with trypsin using the automated cell counter Scepter^TM (Millipore), and cell shape was monitored using phase-contrast microscopy. Then, 7 × 10^3 cells were seeded per well of a 96-well plate, incubated for 24 h, and cell viability was measured using the WST-1 viability reagent (Figure 9c,d). […] This was consistent with the lower cell viability found for GA-Hecate-treated cells (65% of the control, Figure 9c).
Figure 9 Effect of peptides on Vero. (a) Cells were treated with 20 µM each of the peptides and cell counts determined at 3 and 7 days (a) during or (b) after treatment, as described in the text. (c,d) depict the cell viability counts from (a,b), respectively, shown as plots. Bars represent triplicate samples of three independent assays. *** p < 0.001. […]
GA-Hecate and GA-metabolite cell toxicity during constant treatment. […] Absorbance was measured at 450 nm, using a plate reader spectrophotometer. […] Cell images were obtained using a confocal microscope and the number of cells/mL was automatically measured using the automated cell counter Scepter^TM (Millipore). […]

ZIKV strain MP1751 = assay: Virucidal assay, micro-neutralization; format: cell-based, Zika virus; details: virus pre-incubated 1 h, 72 hpi, Vero
Procedure: We next tested the virucidal effect of GA-Hecate and GA-metabolite 5 at concentrations of 20 µM and 40 µM on ZIKV strain MP1751 as described above. Again, we found a modest effect of GA-Hecate at 40 µM on ZIKV strain MP1751 replication. […] Given the latter result, the combination was not tested.
Sandwich ELISA to assess ZIKV infectivity (micro-neutralization). This assay was performed as described previously by Lopez-Chamaco et al., 2018. Briefly, at 72 h post-treatment (h.p.i.) the infected cell medium was removed, and cells were washed with PBS and then lysed with lysis buffer (20 mM Tris-HCl (pH 7.4), 20 mM iodoacetamide, 150 mM NaCl, 1 mM EDTA, and 0.5% Triton X-100) containing protease inhibitors. The lysis solution was transferred to an Immunolon® plate pre-coated with 3 µg/mL of purified pan-flavivirus MAb D1-4G2-4-15 (ATCC® HB112TM, herein referred to as 4G2) in PBS and incubated at room temperature for 1 h. […] After washing with PBST, 100 µL of TMB solution (Life Technologies) was added and the reaction stopped at 30 min with 50 µL of 0.5 M H2SO4 solution added and read at 450 nm using a plate reader spectrophotometer (ELISA).
Entry step assessment of GA-Hecate and GA-metabolites on Zika Virus. […] The levels of virus replication were determined using micro-neutralization as described above. […]

fresh human serum = details: 37 °C, up to 20 min

CC(C)C[C@H](NC(=O)[C@H](C)NC(=O)[C@H](CCCCN)NC(=O)[C@H](CC(C)C)NC(=O)[C@H](C)NC(=O)[C@H](CC(C)C)NC(=O)[C@H](C)NC(=O)[C@H](Cc1ccccc1)NC(=O)c1cc(O)c(O)c(O)c1)C(=O)O [GA-Metabolite 6] (Galloyl-FALALKAL-OH)
Water Solubility [1]: Not soluble

CC(C)C[C@H](NC(=O)[C@H](C)NC(=O)[C@H](CCCCN)NC(=O)[C@H](CCCCN)NC(=O)[C@H](CC(C)C)NC(=O)[C@H](C)NC(=O)[C@H](CCCCN)NC(=O)[C@H](CCCCN)NC(=O)[C@H](CC(C)C)NC(=O)[C@H](CCCCN)NC(=O)[C@H](CCCCN)NC(=O)[C@H](CC(C)C)NC(=O)[C@H](C)NC(=O)[C@H](CCCCN)NC(=O)[C@H](CCCCN)NC(=O)[C@H](CC(C)C)NC(=O)[C@H](C)NC(=O)[C@H](CCCCN)NC(=O)[C@H](CC(C)C)NC(=O)[C@H](C)NC(=O)[C@H](CC(C)C)NC(=O)[C@H](C)NC(=O)[C@H](Cc1ccccc1)NC(=O)c1cc(O)c(O)c(O)c1)C(N)=O [GA-Hecate] (Galloyl-FALALKALKKALKKLKKALKKAL-NH2)
CC50 (50% cytotoxic concentration in VERO cells) (Vero cells [2]): >70.0 µM
maximum non-toxic concentration (Vero cells [2]; Vero cells, WST): 40 µM
Water Solubility [1]: Soluble

CC(C)C[C@H](NC(=O)[C@H](C)NC(=O)[C@H](CCCCN)NC(=O)[C@H](CCCCN)NC(=O)[C@H](CC(C)C)NC(=O)[C@H](C)NC(=O)[C@H](CCCCN)NC(=O)[C@H](CCCCN)NC(=O)[C@H](CC(C)C)NC(=O)[C@H](CCCCN)NC(=O)[C@H](CCCCN)NC(=O)[C@H](CC(C)C)NC(=O)[C@H](C)NC(=O)[C@H](CCCCN)NC(=O)[C@H](CCCCN)NC(=O)[C@H](CC(C)C)NC(=O)[C@H](C)NC(=O)[C@H](CCCCN)NC(=O)[C@H](CC(C)C)NC(=O)[C@H](C)NC(=O)[C@H](CC(C)C)NC(=O)[C@H](C)NC(=O)[C@@H](N)Cc1ccccc1)C(N)=O [Hecate] (H-FALALKALKKALKKLKKALKKAL-NH2)
stability in human blood serum [3]: degraded in human blood serum into three major metabolites

CC(C)C[C@H](NC(=O)[C@H](CCCCN)NC(=O)[C@H](CCCCN)NC(=O)[C@H](CC(C)C)NC(=O)[C@H](C)NC(=O)[C@H](CCCCN)NC(=O)[C@H](CCCCN)NC(=O)[C@H](CC(C)C)NC(=O)[C@H](C)NC(=O)[C@H](CCCCN)NC(=O)[C@H](CC(C)C)NC(=O)[C@H](C)NC(=O)[C@H](CC(C)C)NC(=O)[C@H](C)NC(=O)[C@H](Cc1ccccc1)NC(=O)c1cc(O)c(O)c(O)c1)C(=O)O [GA-Metabolite 5] (Galloyl-FALALKALKKALKKL-OH)
cell viability (Vero cells [4]): did not have any effect on cell viability or cell shape
CC50 (50% cytotoxic concentration in VERO cells) (Vero cells [2]): >70.0 µM
maximum non-toxic concentration (Vero cells [2]; Vero cells, WST): 40 µM
Water Solubility [1]: Soluble
virucidal inhibition (ZIKV strain MP1751; 20 µM): 98.5%
virucidal inhibition (ZIKV strain MP1751; 40 µM): 98.5%

CC(C)C[C@H](NC(=O)[C@H](C)NC(=O)[C@H](CCCCN)NC(=O)[C@H](CCCCN)NC(=O)[C@H](CC(C)C)NC(=O)[C@H](C)NC(=O)[C@H](CCCCN)NC(=O)[C@H](CC(C)C)NC(=O)[C@H](C)NC(=O)[C@H](CC(C)C)NC(=O)[C@H](C)NC(=O)[C@H](Cc1ccccc1)NC(=O)c1cc(O)c(O)c(O)c1)C(=O)O [GA-Metabolite 7] (Galloyl-FALALKALKKAL-OH)
CC50 (50% cytotoxic concentration in VERO cells) (Vero cells [2]): >80.0 µM
cytotoxic effect (Vero cells [2]; Vero cells, WST, all tested concentrations 80-0.62 µM): did not show any cytotoxic effect
Water Solubility [1]: Soluble

H3^+N-FALALKALKKALKKLKKALKKAL-CONH2
cleaved bond (fresh human serum): L-K, major, 20 min
